# Assay results published in the supplement of paper PMC10065799, “High-throughput profiling of sequence recognition by tyrosine kinases and SH2 domains using bacterial peptide display” (eLife, 2023).
# Test system: c-Src
# Experiment: phosphorylation enrichment, bacterial display (enrichment ratio); higher = better substrate or ligand; peptides without Tyr show the background
# 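Note: 11-residue human phosphosite peptides and single-mutation variants displayed on the E. coli surface, counted by deep sequencing, each peptide's frequency after selection divided by its frequency in the unselected input library; frequency after pTyr selection over input frequency; kinase dosed for 20-30% of maximal phosphorylation in three min.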
row,Sequence,phosphorylation enrichment
1,HRGSLYLAIEF [TEK_Y899_Y897S_YF],0.489
2,VFPIDYYFPPQ [AR_Y552_L548F],1.34
3,PLDNLYAEPAV [PRPS1_Y146_V142L],2.06
4,YASALYRQRRS [FGF11_Y162],0.659
5,VKPENYWRLDI [VHL_Y175_R176W],0.377
6,FLRKEYGGLNV [CBR3_Y81],0.334
7,DKATEYIQFVR [MAX_Y70_M74V_YF],0.556
8,MGSFNYLGFAR [SPTLC2_Y178_YF],0.535
9,KIPGRYFETGS [PAX2_Y72_L69P_YF],0.521
10,GSPAPYRRRKR [MBD1_Y403_P401A],0.618
11,PINEPYGDDLD [JUP_Y693_M697L],0.696
12,LHSDHYSPSGR [TMPRSS12_Y23_Y19H],0.503
13,EKQLLYSENKT [FRK_Y132],0.616
14,NSRYTCKLEVK [USH2A_Y3747_Y3747C],0.441
15,DRLASNLDKVR [KRT10_Y160_Y160N],0.391
16,GNHVSYYQSDG [CACNA1C_Y1757],0.574
17,SIIKDSFHRGA [GATM_Y203_Y203S],0.387

row,Sequence,phosphorylation enrichment
1,EFLHKYKGFKI [SYNE1_Y6953_Q6951H_YF],0.508
2,KTDVRYRSLGG [DYSF_Y1858_H1857R],0.368
3,SVEVPYEPPEV [TP53_Y220_V217E],0.549
4,RVGNMYVRGLS [ABCG8_Y209],0.331
5,PLGKDYRKAEG [MAP1A_Y1909],0.456
6,SYMVRYNQPRV [GRIN2D_Y736],0.432
7,SFKNKYGMVAQ [APOB_Y276_YF],0.375
8,GLRSFYETSKM [MAGED2_Y449_YF],0.437
9,AEYGLYGAMVW [VSX2_Y222_R227W],4.49
10,TVFENYVADIE [RHOA_Y42],0.521
11,PESIPYRKFTT [NTRK1_Y701_L700P],0.485
12,ATDLAYYLVRE [ASL_Y375_K380E],1.46
13,FHNSEYGELSE [FLT4_Y1337_Y1333H],0.849
14,HNQDGYSFLSR [LDLR_Y845_P848L_YF],0.435
15,ASPKSYPSQKH [CAP2_Y316_T311A],0.366
16,KICDWYQRQRP [KRT14_Y151_R148C],0.48

# Test system: AncSZ
# Experiment: as above
row,Sequence,phosphorylation enrichment
1,HRGSLYLAIEF [TEK_Y899_Y897S_YF],1.23
2,VFPIDYYFPPQ [AR_Y552_L548F],5.64
3,PLDNLYAEPAV [PRPS1_Y146_V142L],2.72
4,YASALYRQRRS [FGF11_Y162],0.613
5,VKPENYWRLDI [VHL_Y175_R176W],1.13
6,FLRKEYGGLNV [CBR3_Y81],0.584
7,DKATEYIQFVR [MAX_Y70_M74V_YF],0.74
8,MGSFNYLGFAR [SPTLC2_Y178_YF],0.63
9,KIPGRYFETGS [PAX2_Y72_L69P_YF],0.604
10,GSPAPYRRRKR [MBD1_Y403_P401A],0.617
11,PINEPYGDDLD [JUP_Y693_M697L],1.35
12,LHSDHYSPSGR [TMPRSS12_Y23_Y19H],1.79
13,EKQLLYSENKT [FRK_Y132],0.732
14,NSRYTCKLEVK [USH2A_Y3747_Y3747C],1.21
15,DRLASNLDKVR [KRT10_Y160_Y160N],0.556
16,GNHVSYYQSDG [CACNA1C_Y1757],0.774
17,SIIKDSFHRGA [GATM_Y203_Y203S],0.423

row,Sequence,phosphorylation enrichment
1,EFLHKYKGFKI [SYNE1_Y6953_Q6951H_YF],0.857
2,KTDVRYRSLGG [DYSF_Y1858_H1857R],0.446
3,SVEVPYEPPEV [TP53_Y220_V217E],1.44
4,RVGNMYVRGLS [ABCG8_Y209],0.672
5,PLGKDYRKAEG [MAP1A_Y1909],0.68
6,SYMVRYNQPRV [GRIN2D_Y736],0.721
7,SFKNKYGMVAQ [APOB_Y276_YF],0.42
8,GLRSFYETSKM [MAGED2_Y449_YF],0.596
9,AEYGLYGAMVW [VSX2_Y222_R227W],1.45
10,TVFENYVADIE [RHOA_Y42],1.42
11,PESIPYRKFTT [NTRK1_Y701_L700P],0.823
12,ATDLAYYLVRE [ASL_Y375_K380E],1.21
13,FHNSEYGELSE [FLT4_Y1337_Y1333H],1.18
14,HNQDGYSFLSR [LDLR_Y845_P848L_YF],0.867
15,ASPKSYPSQKH [CAP2_Y316_T311A],0.426
16,KICDWYQRQRP [KRT14_Y151_R148C],1

# Target: EPHB1 (UniProt P54762)
# Sequence (P54762 whole entry, looked up): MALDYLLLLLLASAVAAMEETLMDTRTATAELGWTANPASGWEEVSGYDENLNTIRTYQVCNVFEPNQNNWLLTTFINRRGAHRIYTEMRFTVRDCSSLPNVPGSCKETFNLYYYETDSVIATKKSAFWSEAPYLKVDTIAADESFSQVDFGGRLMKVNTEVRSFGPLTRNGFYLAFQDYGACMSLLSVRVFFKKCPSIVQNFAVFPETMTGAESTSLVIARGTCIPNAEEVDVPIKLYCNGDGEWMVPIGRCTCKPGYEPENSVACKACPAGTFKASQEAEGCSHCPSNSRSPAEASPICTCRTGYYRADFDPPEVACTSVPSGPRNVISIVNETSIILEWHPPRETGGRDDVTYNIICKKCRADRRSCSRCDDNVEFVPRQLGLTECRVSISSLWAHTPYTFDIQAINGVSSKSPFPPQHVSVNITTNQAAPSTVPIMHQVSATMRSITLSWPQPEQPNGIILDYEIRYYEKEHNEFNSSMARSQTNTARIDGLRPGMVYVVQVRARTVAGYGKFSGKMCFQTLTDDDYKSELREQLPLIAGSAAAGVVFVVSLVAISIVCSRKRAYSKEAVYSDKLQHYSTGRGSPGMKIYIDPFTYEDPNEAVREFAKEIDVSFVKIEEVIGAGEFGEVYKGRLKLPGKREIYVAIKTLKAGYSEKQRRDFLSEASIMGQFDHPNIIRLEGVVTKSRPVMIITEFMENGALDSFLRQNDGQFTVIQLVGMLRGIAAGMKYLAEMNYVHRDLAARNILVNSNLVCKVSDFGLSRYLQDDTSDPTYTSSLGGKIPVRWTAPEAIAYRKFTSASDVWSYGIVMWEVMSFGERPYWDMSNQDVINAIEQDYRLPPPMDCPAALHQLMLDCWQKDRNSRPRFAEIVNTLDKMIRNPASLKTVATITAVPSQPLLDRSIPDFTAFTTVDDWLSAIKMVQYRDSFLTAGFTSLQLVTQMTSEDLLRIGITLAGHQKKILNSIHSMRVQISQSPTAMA
# Experiment: as above
row,Sequence,phosphorylation enrichment
1,HRGSLYLAIEF [TEK_Y899_Y897S_YF],0.641
2,VFPIDYYFPPQ [AR_Y552_L548F],3.22
3,PLDNLYAEPAV [PRPS1_Y146_V142L],9.6
4,YASALYRQRRS [FGF11_Y162],0.433
5,VKPENYWRLDI [VHL_Y175_R176W],0.814
6,FLRKEYGGLNV [CBR3_Y81],0.4
7,DKATEYIQFVR [MAX_Y70_M74V_YF],0.503
8,MGSFNYLGFAR [SPTLC2_Y178_YF],0.942
9,KIPGRYFETGS [PAX2_Y72_L69P_YF],0.382
10,GSPAPYRRRKR [MBD1_Y403_P401A],0.466
11,PINEPYGDDLD [JUP_Y693_M697L],0.799
12,LHSDHYSPSGR [TMPRSS12_Y23_Y19H],0.431
13,EKQLLYSENKT [FRK_Y132],0.528
14,NSRYTCKLEVK [USH2A_Y3747_Y3747C],0.678
15,DRLASNLDKVR [KRT10_Y160_Y160N],0.326
16,GNHVSYYQSDG [CACNA1C_Y1757],0.557
17,SIIKDSFHRGA [GATM_Y203_Y203S],0.342

row,Sequence,phosphorylation enrichment
1,EFLHKYKGFKI [SYNE1_Y6953_Q6951H_YF],0.458
2,KTDVRYRSLGG [DYSF_Y1858_H1857R],0.333
3,SVEVPYEPPEV [TP53_Y220_V217E],0.579
4,RVGNMYVRGLS [ABCG8_Y209],0.457
5,PLGKDYRKAEG [MAP1A_Y1909],0.512
6,SYMVRYNQPRV [GRIN2D_Y736],0.46
7,SFKNKYGMVAQ [APOB_Y276_YF],0.302
8,GLRSFYETSKM [MAGED2_Y449_YF],0.438
9,AEYGLYGAMVW [VSX2_Y222_R227W],1.33
10,TVFENYVADIE [RHOA_Y42],0.647
11,PESIPYRKFTT [NTRK1_Y701_L700P],0.598
12,ATDLAYYLVRE [ASL_Y375_K380E],0.675
13,FHNSEYGELSE [FLT4_Y1337_Y1333H],0.613
14,HNQDGYSFLSR [LDLR_Y845_P848L_YF],0.837
15,ASPKSYPSQKH [CAP2_Y316_T311A],0.358
16,KICDWYQRQRP [KRT14_Y151_R148C],0.398

# Test system: c-Abl (mouse)
# Experiment: as above
row,Sequence,phosphorylation enrichment
1,HRGSLYLAIEF [TEK_Y899_Y897S_YF],1.19
2,VFPIDYYFPPQ [AR_Y552_L548F],0.922
3,PLDNLYAEPAV [PRPS1_Y146_V142L],10.6
4,YASALYRQRRS [FGF11_Y162],0.703
5,VKPENYWRLDI [VHL_Y175_R176W],0.839
6,FLRKEYGGLNV [CBR3_Y81],0.412
7,DKATEYIQFVR [MAX_Y70_M74V_YF],0.574
8,MGSFNYLGFAR [SPTLC2_Y178_YF],0.521
9,KIPGRYFETGS [PAX2_Y72_L69P_YF],0.633
10,GSPAPYRRRKR [MBD1_Y403_P401A],0.497
11,PINEPYGDDLD [JUP_Y693_M697L],0.972
12,LHSDHYSPSGR [TMPRSS12_Y23_Y19H],0.569
13,EKQLLYSENKT [FRK_Y132],0.563
14,NSRYTCKLEVK [USH2A_Y3747_Y3747C],0.921
15,DRLASNLDKVR [KRT10_Y160_Y160N],0.481
16,GNHVSYYQSDG [CACNA1C_Y1757],0.621
17,SIIKDSFHRGA [GATM_Y203_Y203S],0.497

row,Sequence,phosphorylation enrichment
1,EFLHKYKGFKI [SYNE1_Y6953_Q6951H_YF],0.697
2,KTDVRYRSLGG [DYSF_Y1858_H1857R],0.473
3,SVEVPYEPPEV [TP53_Y220_V217E],1.08
4,RVGNMYVRGLS [ABCG8_Y209],0.494
5,PLGKDYRKAEG [MAP1A_Y1909],0.505
6,SYMVRYNQPRV [GRIN2D_Y736],0.694
7,SFKNKYGMVAQ [APOB_Y276_YF],0.465
8,GLRSFYETSKM [MAGED2_Y449_YF],0.806
9,AEYGLYGAMVW [VSX2_Y222_R227W],1.1
10,TVFENYVADIE [RHOA_Y42],0.861
11,PESIPYRKFTT [NTRK1_Y701_L700P],0.879
12,ATDLAYYLVRE [ASL_Y375_K380E],0.527
13,FHNSEYGELSE [FLT4_Y1337_Y1333H],0.806
14,HNQDGYSFLSR [LDLR_Y845_P848L_YF],0.635
15,ASPKSYPSQKH [CAP2_Y316_T311A],0.484
16,KICDWYQRQRP [KRT14_Y151_R148C],0.555
